Data reported in the supplement of paper PMC7877785.
± gives the uncertainty stated by the source.

Assay: self-splicing fitness, log relative to wild type (ln ratio); higher = more splicing; Tetrahymena group I intron in knt gene, E. coli kanamycin selection, DiMSum; sequences stand for … in CUCUCU…GGAGGGAAAAGUUAUCAGGCAUGCACCUGGUAGCUAGUCUUUAAACCAAUAGAUUGCAUCGGUUUAAAAGGCAAGACCGUCAAAUUGCGGGAAAGGGGUCAACAGCCGUUCAGUACCAAGUCUCAGGGGAAACUUUGAGAUGGCCUUGCAAAGGGUAUGGUAAUAAGCUGACGGACAUGGUCCUAACCACGCAGCCAAGUCCUAAGUCAACAGAUCUUCUGUUGAUAUGGAUGCAGUUCACAGACUAAAUGUCGGUCGGGGAAGAUGUAUUCUUCUCAUAAGAUAUAGUCGGACCUCUCCUUAAUGGGAGCUAGCGGAUGAAGUGAUGCAACACUGGAGCCGCUGGGAACUAAUUUGUAUGCGAAAGUAUAUUGAUUAGUUUUGGAGUACUCGUGGUCG
Method in brief: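 Fitness was computed with DiMSum as the error-weighted combination of replicate fold changes, kanamycin versus none, each normalised to wild type. The library randomised all eight intron nucleotides of the P1ex region, with the intron placed in the knt kanamycin-resistance gene on pET-22b(+) in E. coli BL21(DE3). Six replicate transformations were grown overnight at 37°C or 30°C on LB agar with or without 25 μg/mL kanamycin, plus 100 μg/mL carbenicillin, 50 μM IPTG and 0.2% rhamnose. Pooled colonies were amplicon-sequenced on an Illumina HiSeq 2500.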

Row | Sequence | self-splicing fitness (ln) (30 °C) | self-splicing fitness (ln) (37 °C)
1 | GGGUAGCAAUAUUACGUGCA | -0.359 ± 0.12 | -0.483 ± 0.14
2 | AACGAGCAAUAUUACGUACA | -3.11 ± 0.17 | -2.19 ± 0.14
3 | UGUCAGCAAUAUUACGAUGU | -1.36 ± 0.073 | -0.317 ± 0.093
4 | GCUGAGCAAUAUUACGGAAG | -2.41 ± 0.24 | -0.395 ± 0.17
5 | CUAUAGCAAUAUUACGUGAG | -0.571 ± 0.057 | -0.137 ± 0.086
6 | GGUUAGCAAUAUUACGUGUA | -1.7 ± 0.13 | -0.817 ± 0.1
7 | ACCUAGCAAUAUUACGUACU | -0.755 ± 0.052 | -0.159 ± 0.062
8 | ACGGAGCAAUAUUACGUGCU | -2.34 ± 0.19 | –
9 | UUGUAGCAAUAUUACGUGGA | -2.15 ± 0.15 | -0.844 ± 0.12
10 | ACGUAGCAAUAUUACGGGUC | -3.56 ± 0.19 | -3.42 ± 0.25
11 | ACCAAGCAAUAUUACGGAUU | -2.62 ± 0.081 | -1.06 ± 0.081
12 | AUUGAGCAAUAUUACGAUGA | – | -2.08 ± 0.35
13 | GUGGAGCAAUAUUACGGUCC | -2.12 ± 0.19 | -1.91 ± 0.24
14 | AGGUAGCAAUAUUACGUCGU | -1.761 ± 0.015 | -0.841 ± 0.034
15 | AGAAAGCAAUAUUACGGUGU | -2.76 ± 0.098 | -1.28 ± 0.096
16 | UUCGAGCAAUAUUACGUGAC | -3.65 ± 0.24 | -3.28 ± 0.27
17 | CGUAAGCAAUAUUACGCUUU | -3.21 ± 0.23 | -2.31 ± 0.2
18 | CAGUAGCAAUAUUACGUUGC | -3.47 ± 0.34 | –
19 | CCGGAGCAAUAUUACGCAGC | – | -2.52 ± 0.37
20 | AGAUAGCAAUAUUACGCCCC | -1.27 ± 0.26 | -0.202 ± 0.4
21 | UGAUAGCAAUAUUACGAAUA | -3.62 ± 0.47 | -0.595 ± 0.2
22 | GUCUAGCAAUAUUACGAAGC | -1.58 ± 0.18 | -0.814 ± 0.18
23 | CAGAAGCAAUAUUACGUCGC | -3.55 ± 0.23 | -2.76 ± 0.28
24 | ACGCAGCAAUAUUACGGGGG | -3.86 ± 0.2 | -2.54 ± 0.19
25 | CUGUAGCAAUAUUACGGCGG | -2.82 ± 0.27 | -1.93 ± 0.32

Row | Sequence | self-splicing fitness (ln) (30 °C) | self-splicing fitness (ln) (37 °C)
26 | CAGAAGCAAUAUUACGCGAG | -2.62 ± 0.097 | -1.49 ± 0.096
27 | AACUAGCAAUAUUACGUAAA | -1.87 ± 0.11 | -1.01 ± 0.11
28 | CAGCAGCAAUAUUACGUGAU | -3.66 ± 0.15 | -1.78 ± 0.14
29 | CUGCAGCAAUAUUACGGGGU | -4.93 ± 0.45 | -2.73 ± 0.2
30 | UUGUAGCAAUAUUACGGAUG | -1.9 ± 0.12 | -1.56 ± 0.15
31 | AGGAAGCAAUAUUACGUUGG | -3.22 ± 0.3 | -2.33 ± 0.17
32 | GGGAAGCAAUAUUACGAGAG | -3.24 ± 0.27 | -2.46 ± 0.24
33 | UAUAAGCAAUAUUACGAUAC | – | -2.39 ± 0.33
34 | AGUUAGCAAUAUUACGUAUU | -2.02 ± 0.1 | -1.04 ± 0.11
35 | ACCCAGCAAUAUUACGCCUU | -0.51 ± 0.062 | 0.161 ± 0.081
36 | AAUAAGCAAUAUUACGUCAC | -3.19 ± 0.17 | -3.17 ± 0.21
37 | UGUCAGCAAUAUUACGCGCU | -0.874 ± 0.17 | -0.182 ± 0.17
38 | GUACAGCAAUAUUACGUUCA | -1.51 ± 0.15 | -0.775 ± 0.17
39 | GAGAAGCAAUAUUACGGCUG | -0.733 ± 0.088 | -0.161 ± 0.12
40 | UACUAGCAAUAUUACGCGAC | -2.29 ± 0.25 | -2.29 ± 0.3
41 | UACCAGCAAUAUUACGCAGC | -2.72 ± 0.18 | -1.87 ± 0.23
42 | AGGCAGCAAUAUUACGAGAC | -1.96 ± 0.13 | -2.65 ± 0.22
43 | GACAAGCAAUAUUACGAGUC | -1.85 ± 0.15 | -2.72 ± 0.28
44 | GCUGAGCAAUAUUACGAUCU | -1.69 ± 0.094 | -1.05 ± 0.1
45 | UCCUAGCAAUAUUACGGUCC | -2.63 ± 0.24 | –
46 | UAUCAGCAAUAUUACGAUUG | -0.748 ± 0.087 | 0.588 ± 0.1
47 | CUUAAGCAAUAUUACGAUUG | -1.68 ± 0.12 | -1.11 ± 0.13
48 | CUCCAGCAAUAUUACGAAAG | -0.942 ± 0.11 | -1.41 ± 0.14
49 | CGCGAGCAAUAUUACGCUGC | -2.91 ± 0.28 | –
50 | ACGAAGCAAUAUUACGCAUC | -3.54 ± 0.18 | -3.42 ± 0.3
